# Test results from US20190142971A1, “FORMULATION AND DELIVERY OF MODIFIED NUCLEOSIDE, NUCLEOTIDE, AND NUCLEIC ACID COMPOSITIONS” (ModernaTX, Inc., priority 2013, published 2019).
# B1: G-CSF: modified mRNA encoding human G-CSF, SEQ ID NO: 4, Cap1, fully modified with 5-methylcytosine and pseudouridine; LNP-formulated in Examples 16-22 (nucleic acid)
# chain: GGGAAAUAAGAGAGAAAAGAAGAGUAAGAAGAAAUAUAAGAGCCACCAUGGCCGGUCCCGCGACCCAAAGCCCCAUGAAACUUAUGGCCCUGCAGUUGCUGCUUUGGCACUCGGCCCUCUGGACAGUCCAAGAAGCGACUCCUCUCGGACCUGCCUCAUCGUUGCCGCAGUCAUUCCUUUUGAAGUGUCUGGAGCAGGUGCGAAAGAUUCAGGGCGAUGGAGCCGCACUCCAAGAGAAGCUCUGCGCGACAUACAAACUUUGCCAUCCCGAGGAGCUCGUACUGCUCGGGCACAGCUUGGGGAUUCCCUGGGCUCCUCUCUCGUCCUGUCCGUCGCAGGCUUUGCAGUUGGCAGGGUGCCUUUCCCAGCUCCACUCCGGUUUGUUCUUGUAUCAGGGACUGCUGCAAGCCCUUGAGGGAAUCUCGCCAGAAUUGGGCCCGACGCUGGACACGUUGCAGCUCGACGUGGCGGAUUUCGCAACAACCAUCUGGCAGCAGAUGGAGGAACUGGGGAUGGCACCCGCGCUGCAGCCCACGCAGGGGGCAAUGCCGGCCUUUGCGUCCGCGUUUCAGCGCAGGGCGGGUGGAGUCCUCGUAGCGAGCCACCUUCAAUCAUUUUUGGAAGUCUCGUACCGGGUGCUGAGACAUCUUGCGCAGCCGUGAAGCGCUGCCUUCUGCGGGGCUUGCCUUCUGGCCAUGCCCUUCUUCUCUCCCUUGCACCUGUACCUCUUGGUCUUUGAAUAAAGCCUGAGUAGGAAG
# modifications: Cap1, 5-methylcytosine, pseudouridine
# Legend:
# mice = test: Example 18: time course LNP IV in mice, serum EPO/G-CSF ELISA (Table 35); assay type: in vivo; conditions: for EPO / G-CSF Serum Concentration: mice, LNP IV
# Experimental: Formulations, listed in Table 33, were characterized by particle size, zeta potential, and encapsulation.
# LNP formulations, shown in Table 33 (above), were administered to mice (n=5) intravenously (IV) at a single modified mRNA dose of 0.5, 0.05 or 0.005 mg/kg. The mice were bled at 8 hours, 24 hours, 72 hours and 6 days after they were administered with G-CSF or EPO modified mRNA formulations to determine protein expression using ELISA.
# [1] = system: non-human primates (cynomolgus monkey); test: Example 22: NHP hematology: neutrophils, reticulocytes, HGB, HCT, RBC (Tables 40-44); assay type: in vivo; conditions: for HCT / RBC: 0.005 mg/kg
# Experimental: LNP formulations, shown in Table 33 (above), were administered to non-human primates (NHP) (cynomolgus monkey) (n=2) as intravenous injection (IV). The NHP were administered a single modified mRNA IV dose of 0.5 mg/kg, 0.05 mg/kg or 0.005 mg/kg of G-CSF or EPO in a dose volume of 0.5 mL/kg. The NHPs were bled before dosing with the modified mRNA LNP formulations to determine protein expression in the serum and a baseline complete blood count. After administration with the G-CSF modified mRNA formulation the NHP were bled at 8, 24, 48 and 72 hours to determined protein expression. After administration with the EPO modified mRNA formulation the NHP were bled at 8, 24, 48, 72 hours and 7 days to determined protein expression.
# Samples collected from the NHPs after they were administered with G-CSF or EPO modified mRNA formulations were analyzed by ELISA to determine protein expression. Neutrophil and reticulocyte count was also determined pre-dose, 24 hours, 3 days, 7 days, 14 days and 18 days after administration of the modified G-CSF or EPO formulation.
molecule,measurement,setting,value
B1,protein expression detectable out to,"mice; mice IV, 0.005 mg/kg and 0.05 mg/kg",72 h
same,EPO / G-CSF Serum Concentration,"mice; 0.005 mg/kg, 8 hours","11,550.6 pg/ml"
same,EPO / G-CSF Serum Concentration,"mice; 0.005 mg/kg, 24 hours","5,068.9 pg/ml"
same,EPO / G-CSF Serum Concentration,"mice; 0.05 mg/kg, 8 hours","462,312.5 pg/ml"
same,EPO / G-CSF Serum Concentration,"mice; 0.05 mg/kg, 24 hours","80,903.8 pg/ml"
same,EPO / G-CSF Serum Concentration,"mice; 0.5 mg/kg, 8 hours",">1,250,000 pg/ml"
same,EPO / G-CSF Serum Concentration,"mice; 0.5 mg/kg, 24 hours","495,812.5 pg/ml"
same,EPO / G-CSF Serum Concentration,"mice; 0.5 mg/kg, 72 hours","1,325.6 pg/ml"
same,Female NHP HGB,"[1]; 0.005 mg/kg IV, 14/18 days",129 g/L
same,Female NHP Neutrophils,"[1]; 0.005 mg/kg IV, 14/18 days",2.28 10^9/L
same,Male NHP HGB,"[1]; 0.005 mg/kg IV, 14/18 days",118 g/L
same,Male NHP Neutrophils,"[1]; 0.005 mg/kg IV, 14/18 days",4.31 10^9/L
same,Female NHP HGB,"[1]; 0.005 mg/kg IV, 24 hours",127 g/L
same,Female NHP Neutrophils,"[1]; 0.005 mg/kg IV, 24 hours",8.6 10^9/L
same,Male NHP HGB,"[1]; 0.005 mg/kg IV, 24 hours",117 g/L
same,Male NHP Neutrophils,"[1]; 0.005 mg/kg IV, 24 hours",16.44 10^9/L
same,Female NHP HGB,"[1]; 0.005 mg/kg IV, 3 days",127 g/L
same,Female NHP Neutrophils,"[1]; 0.005 mg/kg IV, 3 days",1.78 10^9/L
same,Male NHP HGB,"[1]; 0.005 mg/kg IV, 3 days",116 g/L
same,Male NHP Neutrophils,"[1]; 0.005 mg/kg IV, 3 days",3.74 10^9/L
same,Female NHP HGB,"[1]; 0.005 mg/kg IV, 7 days",129 g/L
same,Female NHP Neutrophils,"[1]; 0.005 mg/kg IV, 7 days",2.27 10^9/L
same,Male NHP HGB,"[1]; 0.005 mg/kg IV, 7 days",116 g/L
same,Male NHP Neutrophils,"[1]; 0.005 mg/kg IV, 7 days",7.28 10^9/L
same,Female NHP HGB,"[1]; 0.005 mg/kg IV, Pre-dose",129 g/L
same,Female NHP Neutrophils,"[1]; 0.005 mg/kg IV, Pre-dose",2.54 10^9/L
same,Male NHP HGB,"[1]; 0.005 mg/kg IV, Pre-dose",128 g/L
same,Male NHP Neutrophils,"[1]; 0.005 mg/kg IV, Pre-dose",1.52 10^9/L
same,HCT,"[1]; 14/18 days, Female NHP",0.42 L/L
same,RBC,"[1]; 14/18 days, Female NHP",5.34 10^12/L
same,HCT,"[1]; 14/18 days, Male NHP",0.41 L/L
same,RBC,"[1]; 14/18 days, Male NHP",5.37 10^12/L
same,HCT,"[1]; 24 hours, Female NHP",0.42 L/L
same,RBC,"[1]; 24 hours, Female NHP",5.35 10^12/L
same,HCT,"[1]; 24 hours, Male NHP",0.4 L/L
same,RBC,"[1]; 24 hours, Male NHP",5.34 10^12/L
same,HCT,"[1]; 3 days, Female NHP",0.41 L/L
same,RBC,"[1]; 3 days, Female NHP",5.24 10^12/L
same,HCT,"[1]; 3 days, Male NHP",0.4 L/L
same,RBC,"[1]; 3 days, Male NHP",5.32 10^12/L
same,HCT,"[1]; 7 days, Female NHP",0.42 L/L
same,RBC,"[1]; 7 days, Female NHP",5.34 10^12/L
same,HCT,"[1]; 7 days, Male NHP",0.39 L/L
same,RBC,"[1]; 7 days, Male NHP",5.25 10^12/L
same,HCT,"[1]; Pre-dose, Female NHP",0.42 L/L
same,RBC,"[1]; Pre-dose, Female NHP",5.36 10^12/L
same,HCT,"[1]; Pre-dose, Male NHP",0.42 L/L
same,RBC,"[1]; Pre-dose, Male NHP",5.67 10^12/L
same,Female NHP HGB,"[1]; 0.05 mg/kg IV, 14/18 days",123 g/L
same,Female NHP Neutrophils,"[1]; 0.05 mg/kg IV, 14/18 days",1.82 10^9/L
same,Male NHP HGB,"[1]; 0.05 mg/kg IV, 14/18 days",134 g/L
same,Male NHP Neutrophils,"[1]; 0.05 mg/kg IV, 14/18 days",3.59 10^9/L
same,Female NHP HGB,"[1]; 0.05 mg/kg IV, 24 hours",117 g/L
same,Female NHP Neutrophils,"[1]; 0.05 mg/kg IV, 24 hours",29.91 10^9/L
same,Male NHP HGB,"[1]; 0.05 mg/kg IV, 24 hours",122 g/L
same,Male NHP Neutrophils,"[1]; 0.05 mg/kg IV, 24 hours",19.92 10^9/L
same,Female NHP HGB,"[1]; 0.05 mg/kg IV, 3 days",115 g/L
same,Female NHP Neutrophils,"[1]; 0.05 mg/kg IV, 3 days",10.77 10^9/L
same,Male NHP HGB,"[1]; 0.05 mg/kg IV, 3 days",126 g/L
same,Male NHP Neutrophils,"[1]; 0.05 mg/kg IV, 3 days",7.49 10^9/L
same,Female NHP HGB,"[1]; 0.05 mg/kg IV, 7 days",116 g/L
same,Female NHP Neutrophils,"[1]; 0.05 mg/kg IV, 7 days",3.8 10^9/L
same,Male NHP HGB,"[1]; 0.05 mg/kg IV, 7 days",126 g/L
same,Male NHP Neutrophils,"[1]; 0.05 mg/kg IV, 7 days",4.13 10^9/L
same,Female NHP HGB,"[1]; 0.05 mg/kg IV, Pre-dose",129 g/L
